Measurements taken from patent publication US20240343803A1 (SHANDONG SIMCERE BIOPHARMACEUTICAL, published 2024).
Numbering of substitutions follows the chain as printed. Where “and” joins values, the source holds several entries; their conditions need not be identical. Identical values can stand only once. Like-named read-outs stand apart in the source and are kept apart here. One block for each binder: values may come before it.

Assays:
[1] = target: T1, human PVRIG on FlpinCHO-PVRIG cells (human, UniProt Q6DKI7 41-326); test: FACS, FlpinCHO-PVRIG cells
T1 construct: whole, on cells; also called FlpinCHO-hPVRIG; FlpinCHO-human PVRIG
T1 sequence (looked up): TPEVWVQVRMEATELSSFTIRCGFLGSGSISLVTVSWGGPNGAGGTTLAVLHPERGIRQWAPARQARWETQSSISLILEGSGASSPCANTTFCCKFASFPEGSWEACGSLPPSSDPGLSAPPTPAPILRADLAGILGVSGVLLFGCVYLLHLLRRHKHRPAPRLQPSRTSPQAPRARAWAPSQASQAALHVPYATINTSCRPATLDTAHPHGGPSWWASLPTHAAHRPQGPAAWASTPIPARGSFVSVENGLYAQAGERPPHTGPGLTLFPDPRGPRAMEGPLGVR
Protocol: After discarding the cell culture medium, the cells were rinsed with PBS and digested for 8-10 minutes by adding 1 mL Versene (Gibico, 15040-066). The Ham's F12 (Gibico, 21127-022) complete medium containing 10% FBS was then added to terminate the digestion and acquire cell suspension. After counting with a cell counter (Beckman Coulter, Vi-CELL), an appropriate amount of cell suspension was centrifuged at 350×g to remove the supernatant, washed twice with PBS, stained with Zombie violet (Biolegend, 423114) and incubated at room temperature for 20 minutes. After incubation, the cells were added with staining buffer (2% FBS+PBS) to stop staining, centrifuged at 350×g to remove the supernatant, washed twice and resuspended with staining buffer to a density of 2×10⁶ cells/mL. The cells were plated into a 96-well plate (50 μL of cell suspension per well) for further use. The antibodies were diluted from the highest concentration of 46 nM (two-fold concentration) with staining buffer by 3.3-fold serial dilution. The diluted antibodies were added to the well containing 50 μL of cell suspension. The plate was placed on a microplate shaker at 400 rpm for 1 minute to fully mix the antibodies and cells, and then incubated at 4° C. for 30 minutes. After the incubation, the cells were washed twice with staining buffer (200 μL per well) and centrifuged at 350×g for 5 minutes to discard the supernatant. The PE goat anti-human IgG Fc antibody (ebioscience, 12-4998-82) was diluted 250 times with staining buffer, added into the washed wells (100 μL per well), mixed well, and stained at 4° C. for 30 minutes. After staining, the cells were washed twice with staining buffer, finally resuspended with 200 μL staining buffer and analyzed by flow cytometry (BD, Canto II). The stronger the signal, the stronger the ability of the antibodies binds to PVRIG. An antibody binding curve was drawn with concentration of antibodies as the abscissa and the corresponding Mean Fluorescence Intensity (MFI) as the ordinate. The AUC value of the curve was calculated by using a Four Parameter Logistic Fit (GraphPadPrism9).

[2] = target: T2, human PVRIG-mFc protein (Acro, PVG-H5253) (human, UniProt Q6DKI7 41-171, limits assumed); test: competition FACS; blocked: human PVRIG-mFc binding to CHO-K1-CD112 cells
T2 construct: bought reagent; also called PVRIG-ECD-mFc
T2 sequence (looked up): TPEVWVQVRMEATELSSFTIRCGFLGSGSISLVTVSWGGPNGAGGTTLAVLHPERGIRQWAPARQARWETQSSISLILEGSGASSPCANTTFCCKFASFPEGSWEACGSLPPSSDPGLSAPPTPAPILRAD
How it was run: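 Antibody dilutions premixed with human PVRIG-mFc (working solution 1 μg/mL, four-fold concentration) for 30 min at 4° C, then incubated with CHO-K1-CD112 cells 30 min at 4° C. Bound PVRIG-mFc detected by PE anti-mouse IgG Fc flow cytometry; IC50 and AUC from four-parameter fit of MFI versus antibody concentration.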

[3] = target: T3, human PVRIG-his (AcroBiosystems, Cat NO. PVG-H52H4) (human, UniProt Q6DKI7 41-171, limits assumed); test: competition ELISA on coated human PVRIG-his; blocked ligand human PVRL2-mFc
T3 construct: treated as the same protein; also called human PVRIG-His protein; Human PVRIG-His, Acro C227P1-9ARF1-T4
T3 sequence (looked up): T2 sequence (looked up)
How it was run: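 Wells were coated with 0.5 μg/mL human PVRIG-his. Bound ligand was read by HRP/TMB absorbance, and IC50 came from a four-parameter logistic fit of OD against antibody concentration.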

[4] = target: T3, human PVRIG-his (AcroBiosystems, Cat …); test: as above; remark: listed apart in the source
Protocol: The ELISA plate was pre-coated with 100 μL/well of 0.5 μg/mL human PVRIG-his protein (AcroBiosystems, Cat NO. PVG-H52H4). The tested anti-PVRIG antibodies were diluted from the highest concentration of 16 nM (two-fold concentration). The diluted antibodies were mixed with 18 ng/ml human PVRL2-mFc (AcroBiosystems, Cat NO. CD2-H5257) in equal volume, added into the plate (100 μL/well), and incubated with shaking at room temperature for 2.0 hours. […] A HRP substrate, TMB (Thermo, Cat NO. 34029) was added into wells after washing the plate again for color development. After adding a termination solution to terminate the reaction, the absorbance value was read by a microplate reader (MD i3×). An inhibiting curve was drawn with concentration of antibodies as the abscissa and the corresponding OD value as the ordinate. The IC50 value was calculated by using a Four Parameter Logistic Fit (GraphPadPrism9). The smaller the IC50 value, the stronger the ability of the antibodies inhibits the binding between PVRIG and PVRL2. The positive and negative controls are the same as in Example 8.
The methods refer to Example 11. The inhibiting activity of the humanized antibodies was normalized to the corresponding parental antibodies. If the percentage value is higher than 100%, the inhibiting effect of humanized antibodies is better than that of parental antibodies.

[5] = target: T3, human PVRIG-his (AcroBiosystems, Cat …); test: ELISA, coated human PVRIG-his
Protocol: (§1) The ELISA plate was pre-coated with 100 μL/well of 0.5 μg/mL human PVRIG-his (AcroBiosystems, Cat NO. PVG-H52H4) or cynomolgus monkey PVRIG (Novoprotein, Cat NO. C09B). […] A HRP substrate, TMB (Thermo, Cat NO. 34029) was added into wells after washing the plate again for color development. After adding a termination solution to terminate the reaction, the absorbance value was read by a microplate reader (MD i3×). An antibody binding curve was drawn with concentration of antibodies as the abscissa and the corresponding OD value as the ordinate. The EC50 value was calculated by using a Four Parameter Logistic Fit (GraphPadPrism9). The smaller the EC50 value, the stronger the ability of the antibodies binds to human or cynomolgus monkey PVRIG. The positive control antibodies are COM701-hIgG1 (Patent No.:US20180244774A1), COM701-hIgG4 (patent No.: US20180244774A1) and SRF813-hIgG1 (Patent No.:US20200040081A1); and the negative control antibodies are anti-HA HcAb-hIgG1 (Chengdu NB Biolab, Cat NO. NBR022), anti-CD38 HcAb-hIgG1 (in-house) and anti-Fluorescein-hIgG1 (in house).

[6] = target: T2, human PVRIG-mFc protein (Acro, …); test: competition FACS; blocked: human PVRIG-mFc binding to CHO-K1-CD112 cells; remark: listed apart in the source
How it was run: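 CHO-K1-CD112 cells stained with Zombie violet were added to the mixture for another 30 min at 4° C, and bound PVRIG-mFc was detected with PE goat anti-mouse IgG Fc (1:250) as mean fluorescence intensity on a BD Canto II. IC50 values were read off the resulting competition curve.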

[7] = target: T4, cynomolgus monkey PVRIG (Novoprotein, Cat NO. C09B) (cynomolgus monkey, UniProt A0A2K5WVV8 41-171); test: ELISA, coated cynomolgus monkey PVRIG
T4 construct: bought reagent; also called cynomolgus monkey PVRIG recombinant protein
T4 sequence: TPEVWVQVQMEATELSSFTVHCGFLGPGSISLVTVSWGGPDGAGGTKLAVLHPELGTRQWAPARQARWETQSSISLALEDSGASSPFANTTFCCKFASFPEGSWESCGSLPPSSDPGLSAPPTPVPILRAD
Protocol: as §1

[8] = target: T2, human PVRIG-mFc protein (Acro, …); test: competition FACS; blocked: PVRIG-mFc binding to CHO-K1 CD112 cells
Protocol: The Ham's F12 (Gibico, 21127-022) complete medium containing 10% FBS was then added to stop the digestion and acquire cell suspension. After counting with a cell counter (Beckman Coulter, Vi-CELL), an appropriate amount of cell suspension was centrifuged at 350×g to remove the supernatant, washed twice with PBS, stained with Zombie violet (Biolegend, 423114) and incubated at room temperature for 20 minutes. After incubation, the cells were added with staining buffer (2% FBS+PBS) to stop staining, centrifuged at 350×g to remove the supernatant, washed twice and resuspended with staining buffer to a density of 2×10⁶ cells/mL. The cells were plated into a 96-well plate (50 μL of cell suspension per well) for further use. A working solution of human PVRIG-mFc protein (Acro, PVG-H5253) prepared with staining buffer, 1 μg/mL (four-fold concentration), was added into a 96-well plate (50 μL PVRIG-mFc working solution per well). […] The diluted antibodies were added to the well containing 50 μL of PVRIG-mFc. The plate was placed on a microplate shaker at 400 rpm for 1 minute to fully mix the antibodies and PVRIG-mFc proteins, and then incubated at 4° C. for 30 minutes. After the incubation, the cell suspension prepared above (100 μL) was added into the wells, gently mixed with the pipette tip and incubated at 4° C. for 30 minutes. After the incubation, the cells were washed twice with staining buffer (200 μL per well) and centrifuged at 350×g for 5 minutes to discard the supernatant. The PE goat anti-mouse IgG Fc antibody (Biolegend, 405337) was diluted 250 times with staining buffer, added into the washed wells (100 μL per well), mixed well, and stained at 4° C. for 30 minutes. After staining, the cells were washed twice with staining buffer, finally resuspended with 200 μL staining buffer and analyzed by flow cytometry (BD, Canto II). The weaker the fluorescence signal, the stronger the ability of the antibodies blocks the binding of CHO-K1 human CD112 cells to the PVRIG-mFc protein.

B3: PVRIG-A50 (VHH)
VHH: EVQLVESGGGLVQPGGSLRLSCAASGFTFSYYDMSWVRQAPGKGLEWVSTINSNGGRTSYVDSVKGRFTISRDNTKNTLYLQMNSLKPEDTAVYYCVEGDPHNFGLENLSLRDFGSWGQGTQVTVSS
notes: tested as VHH-hinge-CH2-CH3 (human IgG1-Fc); not shown: human IgG1 hinge-CH2-CH3
- EC50 (read off the curve) [1]: ~0.7 nM
- IC50 (read off the curve) [2]: ~0.7 nM
- IC50 (read off the curve) [3]: ~2 nM
- IC50 (read off the curve) [4]: ~0.8 nM and ~1 nM

B4: PVRIG-A50-H1b (VHH)
VHH: B3 VHH with N54D, T75S, K87R, P88A, N108S, Q122M
notes: humanized VHH; also called A50.VH1b
- IC50 (read off the curve) [8]: ~1 nM

Results, then the binder that gave them:

- EC50 (read off the curve) [1]: ~0.2 nM
- IC50 (read off the curve) [2]: ~1 nM
- IC50 (read off the curve) [3]: ~0.6 nM
- IC50 (read off the curve) [4]: ~0.6 nM
B1: PVRIG-A118 (VHH)
VHH: QVQLVESGGGLVQAGGSLRLSCAASETYFDLYVMGWYRQAPGKDRELVATITYTGSIKIVDSVKDRFTISRGDAKNTVSLQMSSLKPEDTAVYFCNADPSGLGRKVYWGQGTQVTVSS
notes: as for B3

- EC50 (read off the curve) [5]: ~0.3 nM
- IC50 (read off the curve) [2]: ~0.8 nM
- IC50 (read off the curve) [3]: ~0.8 nM
- IC50 (read off the curve) [6]: ~0.9 nM
- EC50 (read off the curve) [7]: ~0.1 nM
- IC50 (read off the curve) [8]: ~0.7 nM
B2: COM701-hIgG4 (antibody, V domains shown)
VH: QVQLVQSGAEVKKPGASVKVSCKASGYTFTDYNINWVRQAPGQGLEWMGYIYPYIGGSGYAQKFQGRVTMTRDTSTSTVYMELSSLRSEDTAVYYCAREDKTARNAMDYWGQGTLVTVSS
VL: DIQMTQSPSSLSASVGDRVTITCRVSENIYSNLAWYQQKPGKAPKLLIYEATNLAEGVPSRFSGSGSGTDFTLTISSLQPEDFATYYCQHFWGTPYTFGQGTKLEIK
notes: anti-PVRIG positive control
